According to US20210170047A1 (CASE WESTERN RESERVE UNIVERSITY, published 2021):
Ends that are not written are not given here.

Key:
[1] = target: T1, integrin αIIbβ3 (glycoprotein GPIIb-IIIa) on ADP-activated human platelets (human, UniProt P08514 32-1039; P05106 27-788); experiment: cell-based or functional assay
[2] = target: T1, integrin αIIbβ3 (glycoprotein …); experiment: flow cytometry, human whole blood with ADP pre-incubation, 50 µM total lipid
Source text: Parallel phase contrast image of the same field of view was obtained on the same microscope, by shutting off the fluorescence laser, turning on the phase contrast light source and changing the objective from fluorescence to a phase contrast one, at same magnification. To establish that the specific binding of cRGD-liposomes is predominantly to activated platelets compared to quiescent platelets, we performed flow cytometry assays similar to that described in previous publications from our group. Briefly, NBD-labeled cRGD liposomes were incubated with aliquots of freshly drawn human whole blood with or without the addition of agonist ADP. […] Following 30 min of liposome incubation, the aliquots were analyzed in a Becton-Dickinson FACScan flow cytometer for NBD fluorescence. All aliquots were measured in triplicate and approximately 15000 counts were recorded per aliquot. […] The NBD fluorescence intensity from aliquots without liposome incubation, aliquots with liposome incubation but without ADP pre-incubation, and aliquots with liposome incubation after ADP pre-incubation, were recorded as histograms and the plots were overlaid for comparison.

[3] = target: T1, integrin αIIbβ3 (glycoprotein …); experiment: flow cytometry, agonist-added human whole blood, 50 µM total lipid
Procedure: The effect of platelet activation on liposome binding was studied by a FACScan flow cytometer (Becton Dickinson) with a 488 nm laser and three color detector. For cytometry analysis whole blood aliquots with different platelet activation levels were used. The level of platelet-activation was assessed by simultaneous fluorescence staining of platelet integrin GPIIb-IIIa (with FITC-anti-CD41a) and P-Selectin (with PE-anti-CD62P). Previously we have reported on detecting progressive activation of platelets in freshly drawn blood with addition of agonists (e.g., ADP) and have confirmed that binding of RGD-modified liposomes to platelets increased in an activation-dependant manner. Following a similar protocol, whole blood aliquots containing predominantly activated platelets were incubated with PDPC-NBD-labeled cRGD-, lRGD-, or lRGE-modified liposomes at a final concentration of 50 μM total lipid. For the liposome incubated samples, FITC-anti-CD41a labeling was not used, while PE-anti-CD62P labeling was still used as an activated platelet marker. Simultaneous PE and NBD fluorescence, for gated platelet populations, was analyzed for ˜20,000 events (counts) per sample aliquot and fluorescence data were recorded accordingly. […]

[4] = target: T2, integrin GPIIb-IIIa on resting (predominantly inactive, no ADP) human platelets (human, UniProt P08514 32-1039; P05106 27-788); experiment: flow cytometry, human whole blood without agonist
T2 construct: whole, on cells; also called predominantly resting platelets

[5] = target: T3, P-selectin on ADP-activated human platelets (human, UniProt P16109 42-830); experiment: fluorescence microscopy, static, collagen-adhered activated human platelets
T3 construct: whole, on cells; also called CD62P; P-selectins
T3 sequence (looked up): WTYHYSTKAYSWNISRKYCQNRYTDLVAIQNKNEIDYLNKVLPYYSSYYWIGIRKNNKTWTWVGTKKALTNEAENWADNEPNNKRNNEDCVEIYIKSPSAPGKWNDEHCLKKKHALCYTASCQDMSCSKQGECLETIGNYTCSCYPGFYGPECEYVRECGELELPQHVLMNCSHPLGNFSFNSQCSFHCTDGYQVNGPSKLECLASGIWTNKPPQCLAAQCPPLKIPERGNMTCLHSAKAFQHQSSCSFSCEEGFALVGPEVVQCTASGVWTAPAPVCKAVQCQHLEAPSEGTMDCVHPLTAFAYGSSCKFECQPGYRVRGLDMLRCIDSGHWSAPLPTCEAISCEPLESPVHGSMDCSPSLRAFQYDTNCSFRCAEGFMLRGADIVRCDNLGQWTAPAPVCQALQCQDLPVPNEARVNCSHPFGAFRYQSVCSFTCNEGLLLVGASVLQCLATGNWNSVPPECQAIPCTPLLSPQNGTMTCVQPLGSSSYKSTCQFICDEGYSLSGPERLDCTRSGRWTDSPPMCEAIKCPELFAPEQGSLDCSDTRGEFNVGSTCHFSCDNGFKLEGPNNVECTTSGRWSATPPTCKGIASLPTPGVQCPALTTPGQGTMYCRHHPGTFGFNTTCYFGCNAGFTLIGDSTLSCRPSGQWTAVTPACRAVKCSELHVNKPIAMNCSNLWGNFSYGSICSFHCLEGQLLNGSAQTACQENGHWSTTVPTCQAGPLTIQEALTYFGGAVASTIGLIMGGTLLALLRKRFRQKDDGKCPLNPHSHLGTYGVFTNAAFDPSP
Procedure: Receptor-specific binding studies in a static environment human whole blood was obtained from healthy, aspirin-refraining donors by venipuncture following IRB-approved protocol and collected in citrated tubes. Platelet-rich-plasma (PRP) was obtained from the whole blood by centrifugation (150×g, 15 min, room temperature), and platelet concentration was verified at 200×10⁶ platelets/ml. The platelets in PRP were activated using ADP at a concentration of 2×10⁻⁵M, and were allowed to adhere to glass coverslips pre-coated with collagen. […] After 1 h of incubation, the coverslips were gently washed with PBS to remove loosely bound liposomal constructs and imaged using fluorescence microscopy. […] D1 inverted fluorescence microscope fitted with a photometrics chilled CCD camera and a 63× objective using exposure time of 800 ms. To confirm that non-specific binding of the liposomes was not occurring, fluorescently-labeled peptide-modified liposomal constructs were incubated with coverslips coated with collagen only but no activated platelets, followed by gentle washing and imaged using fluorescence microscopy keeping same exposure times (800 ms).

[6] = target: T1, integrin αIIbβ3 (glycoprotein …); experiment: dual fluorescence microscopy, co-incubation with peptide-modified liposomes
Procedure: The [fibrinogen: liposome] ratio in the incubation assays was maintained at 400:1 by mole, to provide a physiologically relevant competitive environment. […] A 40× oil-immersion objective was used to visualize fluorescence from platelets. Images were collected in MetaMorph™ (Universal Imaging Corp.), using an exposure time of 500 ms and intensity analysis was performed in the software accordingly. Fluorescence intensity was recorded as mean intensity per pixel area for statistical analysis. All coverslips were prepared in duplicate, and at least three fields were examined for each well.

T1 sequence (P08514 32-1039, chain 1 of 2): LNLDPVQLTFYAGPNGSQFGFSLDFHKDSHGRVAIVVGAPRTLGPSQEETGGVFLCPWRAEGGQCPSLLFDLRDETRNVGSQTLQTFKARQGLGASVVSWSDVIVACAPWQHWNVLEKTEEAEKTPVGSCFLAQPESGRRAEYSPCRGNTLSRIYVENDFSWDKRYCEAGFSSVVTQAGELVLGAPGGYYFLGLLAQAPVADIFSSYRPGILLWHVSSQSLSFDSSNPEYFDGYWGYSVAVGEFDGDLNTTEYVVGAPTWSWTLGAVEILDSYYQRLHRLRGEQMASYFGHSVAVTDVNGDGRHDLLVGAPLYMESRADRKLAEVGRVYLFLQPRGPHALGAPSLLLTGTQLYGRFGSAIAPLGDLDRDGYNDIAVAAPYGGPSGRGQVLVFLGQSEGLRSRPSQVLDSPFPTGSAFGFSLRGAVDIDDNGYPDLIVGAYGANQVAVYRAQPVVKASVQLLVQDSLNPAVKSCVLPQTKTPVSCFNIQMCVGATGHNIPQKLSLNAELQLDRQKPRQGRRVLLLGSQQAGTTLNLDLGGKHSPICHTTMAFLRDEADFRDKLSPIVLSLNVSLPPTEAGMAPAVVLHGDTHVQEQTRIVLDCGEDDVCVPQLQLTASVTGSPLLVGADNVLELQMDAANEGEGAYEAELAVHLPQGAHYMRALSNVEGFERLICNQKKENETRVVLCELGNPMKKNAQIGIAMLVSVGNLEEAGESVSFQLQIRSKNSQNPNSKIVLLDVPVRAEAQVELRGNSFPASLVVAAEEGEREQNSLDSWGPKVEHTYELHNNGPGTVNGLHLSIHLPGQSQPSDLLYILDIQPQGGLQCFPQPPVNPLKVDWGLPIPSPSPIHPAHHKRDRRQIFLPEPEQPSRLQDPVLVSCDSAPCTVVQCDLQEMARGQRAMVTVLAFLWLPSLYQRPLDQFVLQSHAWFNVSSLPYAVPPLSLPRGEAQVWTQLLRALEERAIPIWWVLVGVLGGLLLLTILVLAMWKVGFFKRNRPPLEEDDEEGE
T1 sequence (P05106 27-788, chain 2 of 2): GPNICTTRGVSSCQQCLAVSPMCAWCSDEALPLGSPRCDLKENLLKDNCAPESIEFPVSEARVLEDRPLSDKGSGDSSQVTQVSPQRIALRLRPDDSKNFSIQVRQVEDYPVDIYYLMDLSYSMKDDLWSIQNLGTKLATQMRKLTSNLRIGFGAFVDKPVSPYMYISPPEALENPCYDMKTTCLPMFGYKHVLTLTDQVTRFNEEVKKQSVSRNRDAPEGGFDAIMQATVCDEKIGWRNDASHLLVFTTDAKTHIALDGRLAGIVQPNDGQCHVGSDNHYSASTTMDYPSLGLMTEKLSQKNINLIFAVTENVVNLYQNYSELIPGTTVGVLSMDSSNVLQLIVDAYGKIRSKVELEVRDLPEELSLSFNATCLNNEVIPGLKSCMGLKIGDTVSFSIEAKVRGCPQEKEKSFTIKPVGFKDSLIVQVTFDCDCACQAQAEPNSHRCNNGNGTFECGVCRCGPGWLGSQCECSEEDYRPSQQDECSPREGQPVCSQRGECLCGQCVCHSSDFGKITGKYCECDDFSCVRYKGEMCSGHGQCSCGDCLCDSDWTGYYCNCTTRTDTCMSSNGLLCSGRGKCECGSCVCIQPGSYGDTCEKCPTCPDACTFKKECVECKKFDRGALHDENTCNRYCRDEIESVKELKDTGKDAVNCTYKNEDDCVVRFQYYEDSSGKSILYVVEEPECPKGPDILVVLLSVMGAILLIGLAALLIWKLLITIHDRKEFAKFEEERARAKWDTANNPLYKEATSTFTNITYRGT
T2 sequence (P08514 32-1039, chain 1 of 2): as the sequence (P08514 32-1039, chain 1 of 2) above
T2 sequence (P05106 27-788, chain 2 of 2): as the sequence (P05106 27-788, chain 2 of 2) above

CNPRGDYRC (Y(OEt); terminal cysteines (C) cyclized through disulfide) [free cyclic RGD peptide cyclo-CNPRGDY(OEt)RC]
IC50: concentration of peptide required to inhibit fibrinogen-mediated platelet aggregation in platelet-rich plasma by 50% (aggregometry), against lRGD [1]: ~1000 times lower than for lRGD
IC50 estimation by aggregometry assay, against lRGD [1]: ~100 fold lower than for lRGD (printed as 2 orders of magnitude)

B1: cRGD-liposomes (liposomes surface-decorated with DSPE-PEG-cRGD, cyclo-CNPRGDY(OEt)RC) (peptide)
peptide: CNPRGDYRC
modifications: not fully specified; Y(OEt); terminal cysteines cyclized through disulfide; N-terminus conjugated to DSPE-PEG lipid, displayed on the liposome surface
notes: NBD or Nanogold label; also called cyclic RGD-modified liposomes
NBD fluorescence of ADP-activated platelets against inactive platelets [2]: ~100 fold (printed as two orders of magnitude)
platelet-associated NBD fluorescence against lRGD-liposome-incubated aliquots [3]: ~10 fold (printed as an order of magnitude)

B2: RGE-liposomes (liposomes surface-decorated with the negative control peptide GSSSGRGESPA) (peptide)
peptide: {DSPE‑PEG}-GSSSGRGESPA
modifications: also: displayed on liposome surface, 1 or 5 mol %
notes: also called lRGE-liposomes; constructs bearing negative control peptides
binding result [4]: no binding (tested: 50 µM total lipid)

B3: DAEWVDVS-modified liposomes (liposomes surface-decorated with DSPE-PEG-DAEWVDVS) (peptide)
peptide: {DSPE‑PEG}-DAEWVDVS
modifications: also: displayed multivalently on ~150 nm liposome surface, 5 mol % (2.5-10 mol %)
notes: also called singly-targeted liposomes
binding result [5]: binds

B4: human fibrinogen (ligand)
chain 1: ADSGEGDFLAEGGGVRGPRVVERHQSACKDSDWPFCSDEDWNYKCPSGCRMKGLIDEVNQDFTNRINKLKNSLFEYQKNNKDSHSLTTNIMEILRGDFSSANNRDNTYNRVSEDLRSRIEVLKRKVIEKVQHIQLLQKNVRAQLVDMKRLEVDIDIKIRSCRGSCSRALAREVDLKDYEDQQKQLEQVIAKDLLPSRDRQHLPLIKMKPVPDLVPGNFKSQLQKVPPEWKALTDMPQMRMELERPGGNEITRGGSTSYGTGSETESPRNPSSAGSWNSGSSGPGSTGNRNPGSSGTGGTATWKPGSSGPGSTGSWNSGSSGTGSTGNQNPGSPRPGSTGTWNPGSSERGSAGHWTSESSVSGSTGQWHSESGSFRPDSPGSGNARPNNPDWGTFEEVSGNVSPGTRREYHTEKLVTSKGDKELRTGKEKVTSGSTTTTRRSCSKTVTKTVIGPDGHKEVTKEVVTSEDGSDCPEAMDLGTLSGIGTLDGFRHRHPDEAAFFDTASTGKTFPGFFSPMLGEFVSETESRGSESGIFTNTKESSSHHPGIAEFPSRGKSSSYSKQFTSSTSYNRGDSTFESKSYKMADEAGSEADHEGTHSTKRGHAKSRPV
chain 2: QGVNDNEEGFFSARGHRPLDKKREEAPSLRPAPPPISGGGYRARPAKAAATQKKVERKAPDAGGCLHADPDLGVLCPTGCQLQEALLQQERPIRNSVDELNNNVEAVSQTSSSSFQYMYLLKDLWQKRQKQVKDNENVVNEYSSELEKHQLYIDETVNSNIPTNLRVLRSILENLRSKIQKLESDVSAQMEYCRTPCTVSCNIPVVSGKECEEIIRKGGETSEMYLIQPDSSVKPYRVYCDMNTENGGWTVIQNRQDGSVDFGRKWDPYKQGFGNVATNTDGKNYCGLPGEYWLGNDKISQLTRMGPTELLIEMEDWKGDKVKAHYGGFTVQNEANKYQISVNKYRGTAGNALMDGASQLMGENRTMTIHNGMFFSTYDRDNDGWLTSDPRKQCSKEDGGGWWYNRCHAANPNGRYYWGGQYTWDMAKHGTDDGVVWMNWKGSWYSMRKMSMKIRPFFPQQ
chain 3: YVATRDNCCILDERFGSYCPTTCGIADFLSTYQTKVDKDLQSLEDILHQVENKTSEVKQLIKAIQLTYNPDESSKPNMIDAATLKSRKMLEEIMKYEASILTHDSSIRYLQEIYNSNNQKIVNLKEKVAQLEAQCQEPCKDTVQIHDITGKDCQDIANKGAKQSGLYFIKPLKANQQFLVYCEIDGSGNGWTVFQKRLDGSVDFKKNWIQYKEGFGHLSPTGTTEFWLGNEKIHLISTQSAIPYALRVELEDWNGRTSTADYAMFKVGPEADKYRLTYAYFAGGDAGDAFDGFDFGDDPSDKFFTSHNGMQFSTWDNDNDKFEGNCAEQDGSGWWMNKCHAGHLNGVYYQGGTYSKASTPNGYDNGIIWATWKTRWYSMKKTTMKIIPFNRLTIGEGQQHHLGGAKQAGDV
notes: the fibrinogen of human platelet-rich plasma in the aggregometry assay; also called Fg
binding result [6]: binds
